The record followed here is the supplement of paper PMC7877785.

± gives the uncertainty stated by the source.

The series can be described thus: self-splicing fitness, log relative to wild type (ln ratio); higher = more splicing; Tetrahymena group I intron in knt gene, E. coli kanamycin selection, DiMSum; sequences stand for … in CUCUCU…GGAGGGAAAAGUUAUCAGGCAUGCACCUGGUAGCUAGUCUUUAAACCAAUAGAUUGCAUCGGUUUAAAAGGCAAGACCGUCAAAUUGCGGGAAAGGGGUCAACAGCCGUUCAGUACCAAGUCUCAGGGGAAACUUUGAGAUGGCCUUGCAAAGGGUAUGGUAAUAAGCUGACGGACAUGGUCCUAACCACGCAGCCAAGUCCUAAGUCAACAGAUCUUCUGUUGAUAUGGAUGCAGUUCACAGACUAAAUGUCGGUCGGGGAAGAUGUAUUCUUCUCAUAAGAUAUAGUCGGACCUCUCCUUAAUGGGAGCUAGCGGAUGAAGUGAUGCAACACUGGAGCCGCUGGGAACUAAUUUGUAUGCGAAAGUAUAUUGAUUAGUUUUGGAGUACUCGUGGUCG
Put shortly: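 Library with all eight P1ex-region intron nucleotides randomised, intron inside the knt kanamycin-resistance gene on pET-22b(+), in E. coli BL21(DE3). Cells grew overnight at 37°C or 30°C on LB agar with or without 25 μg/mL kanamycin (plus 100 μg/mL carbenicillin, 50 μM IPTG, 0.2% rhamnose), in six replicate transformations. Pooled colonies were amplicon-sequenced on Illumina HiSeq 2500. DiMSum fitness is the error-weighted combination of wild-type-normalised replicate fold changes, kanamycin versus none.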

Take GUCAAGCAAUAUUACGACGU: the “self-splicing fitness (ln)” value was -1.26 ± 0.056 (30 °C) and 0.099 ± 0.07 (37 °C).
For the sequence AAGGAGCAAUAUUACGGGCA, the “self-splicing fitness (ln)” value was -1.9 ± 0.23 (30 °C) and -1.2 ± 0.28 (37 °C).
For UUAUAGCAAUAUUACGGGGC, the “self-splicing fitness (ln)” value (30 °C) was -2.88 ± 0.34.
GGAAAGCAAUAUUACGGUGA: the “self-splicing fitness (ln)” value is, setting by setting: (30 °C) -1.01 ± 0.15; (37 °C) -0.6 ± 0.16.
ACGCAGCAAUAUUACGGAAC: the “self-splicing fitness (ln)” value is -3.67 ± 0.2 (30 °C) and -1.78 ± 0.17 (37 °C).
In the case of CCACAGCAAUAUUACGAAGA, the “self-splicing fitness (ln)” value by setting is: (30 °C) -1.5 ± 0.15; (37 °C) -2.55 ± 0.24.
For GUUAAGCAAUAUUACGCUGA, the “self-splicing fitness (ln)” value by setting is: (30 °C) -2.98 ± 0.22; (37 °C) -1.4 ± 0.2.
On to UCCCAGCAAUAUUACGCAAC, for which the “self-splicing fitness (ln)” value is -3.01 ± 0.37 (30 °C) and -2.19 ± 0.37 (37 °C).
For GAGAAGCAAUAUUACGCGAU, the “self-splicing fitness (ln)” value (30 °C) is -2.81 ± 0.27 and the “self-splicing fitness (ln)” value (37 °C) was -2.48 ± 0.33.
For the sequence ACUUAGCAAUAUUACGCCUC, the “self-splicing fitness (ln)” value reads like this: (30 °C) -2.19 ± 0.26; (37 °C) -1.64 ± 0.3.
On to UAGGAGCAAUAUUACGGUAA, for which the “self-splicing fitness (ln)” value is -3.41 ± 0.34 (30 °C) and -2.26 ± 0.31 (37 °C).
Take AAGCAGCAAUAUUACGUAUG: the “self-splicing fitness (ln)” value is, setting by setting: (30 °C) -4.5 ± 0.26; (37 °C) -2.63 ± 0.17.
In the case of GCACAGCAAUAUUACGCUCC, the “self-splicing fitness (ln)” value was -1.27 ± 0.16 (30 °C) and 0.155 ± 0.17 (37 °C).
On to CCCGAGCAAUAUUACGGUAU, for which the “self-splicing fitness (ln)” value is -3.43 ± 0.22 (30 °C) and -3.01 ± 0.4 (37 °C).
The like results for GAGUAGCAAUAUUACGGUGG were, in that order, -3.37 ± 0.26 and -2.15 ± 0.18.
For AGGGAGCAAUAUUACGCGCG, in that order: -1.62 ± 0.35 and -1.11 ± 0.37.
Turning to UUCCAGCAAUAUUACGUCCG, the “self-splicing fitness (ln)” value (30 °C) is -2.28 ± 0.18 and the “self-splicing fitness (ln)” value (37 °C) is 0.24 ± 0.2.
For the sequence AACAAGCAAUAUUACGUUAU, the “self-splicing fitness (ln)” value is -3.49 ± 0.16 (30 °C) and -2.13 ± 0.12 (37 °C).
For the sequence GUAAAGCAAUAUUACGGUGG, the “self-splicing fitness (ln)” value is -2.81 ± 0.11 (30 °C) and -1.48 ± 0.11 (37 °C).
Turning to CGCUAGCAAUAUUACGAACU, the “self-splicing fitness (ln)” value runs as follows: (30 °C) -0.352 ± 0.12; (37 °C) -0.0958 ± 0.14.
The like results for AUACAGCAAUAUUACGAUCA were, in that order, -0.716 ± 0.086 and -0.37 ± 0.093.
Turning to GGAAAGCAAUAUUACGCAGC, the “self-splicing fitness (ln)” value by setting is: (30 °C) -2.07 ± 0.22; (37 °C) -1.53 ± 0.23.
The like results for ACACAGCAAUAUUACGGCGG were, in that order, -0.95 ± 0.069 and -0.0948 ± 0.088.
For UAAGAGCAAUAUUACGACCU, under “30 °C”, the “self-splicing fitness (ln)” value is -1.34 ± 0.23.
Regarding UAGUAGCAAUAUUACGAAGC, the “self-splicing fitness (ln)” value (37 °C) was -1.73 ± 0.45.
Consider GACGAGCAAUAUUACGCACG, for which the “self-splicing fitness (ln)” value is, setting by setting: (30 °C) -3.63 ± 0.23; (37 °C) -2.61 ± 0.25.
As to AGGGAGCAAUAUUACGUCAA, the “self-splicing fitness (ln)” value was -3.37 ± 0.44 (30 °C) and -2.52 ± 0.45 (37 °C).
With GUAUAGCAAUAUUACGCGUC, the “self-splicing fitness (ln)” value runs as follows: (30 °C) -2.87 ± 0.27; (37 °C) -0.113 ± 0.24.
With AUUAAGCAAUAUUACGCGGG, the “self-splicing fitness (ln)” value is -2.61 ± 0.22 (30 °C) and -1.72 ± 0.17 (37 °C).
Consider CGUUAGCAAUAUUACGCUCU, for which the “self-splicing fitness (ln)” value (30 °C) was -1.56 ± 0.14 and the “self-splicing fitness (ln)” value (37 °C) is -1.07 ± 0.17.
For UUUCAGCAAUAUUACGAAUA, the “self-splicing fitness (ln)” value by setting is: (30 °C) -0.788 ± 0.15; (37 °C) 0.446 ± 0.13.
Take CUGUAGCAAUAUUACGGGUU: the “self-splicing fitness (ln)” value was -3.94 ± 0.23 (30 °C) and -3.13 ± 0.31 (37 °C).
In the case of CAAGAGCAAUAUUACGAGUU, the “self-splicing fitness (ln)” value is -2.81 ± 0.13 (30 °C) and -2.82 ± 0.18 (37 °C).
The like results for CCCCAGCAAUAUUACGUUCC were, in that order, -3.87 ± 0.24 and -3.3 ± 0.3.
Consider GACCAGCAAUAUUACGCCAU, for which the “self-splicing fitness (ln)” value was -3.59 ± 0.17 (30 °C) and -2.09 ± 0.13 (37 °C).
With GAGAAGCAAUAUUACGGCCA, the “self-splicing fitness (ln)” value (30 °C) is -0.417 ± 0.16 and the “self-splicing fitness (ln)” value (37 °C) is -0.286 ± 0.17.
As for AUGUAGCAAUAUUACGGUAC, the “self-splicing fitness (ln)” value reads like this: (30 °C) -3.47 ± 0.38; (37 °C) -1.89 ± 0.3.
For the sequence CAAGAGCAAUAUUACGUACU, the “self-splicing fitness (ln)” value is -3.74 ± 0.21 (30 °C) and -1.92 ± 0.2 (37 °C).
